# Laboratory results as given in the supplement of paper PMC10567573.
# B1: SPDEF (parent)
# chain: FQELAGKELCAMSEEQFRQRSPLG
# B2: CCND1 (parent)
# chain: IRRAYPDANLLNDRVLRAMLKAEE
# Variants of: B1
# Experiment: protein stability index of a GFP-peptide fusion (GPS, HEK-293T) (PSI 1-6); higher = more stable
# Settings: c terminus: a fixed tail appended
# 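Also: lentivirally expressed fusions sorted by FACS into six bins by GFP to DsRed ratio, PSI derived from sequencing read proportions per bin multiplied by bin number.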
row,Variant,protein stability index
1,L4D,4.38
2,L4K,3.59
3,L4N,3.8
4,L4Q,3.91
5,L4F,2.84
6,L4C,4.02
7,L4T,3.94
8,L4G,3.97
9,L4E,4.48
10,L4M,2.6
11,L4P,3.99
12,L4I,3.15
13,L4V,3.85
14,L4S,4.01
15,L4R,3
16,L4H,3.85
17,L4A,3.35
18,L4Y,2.61
19,L4W,2.4
20,E8P,2.06
21,E8S,2.12
22,E8T,1.99
23,E8K,2.32
24,E8V,2.52
25,E8D,2.79
26,E8W,2.87

row,Variant,protein stability index
1,E8Q,2.25
2,E8R,1.78
3,E8A,2.37
4,E8L,2.5
5,E8Y,1.89
6,E8G,1.73
7,E8N,2.27
8,E8M,2.5
9,E8I,1.53
10,E8H,1.77
11,E8F,2.79
12,F1Q,4.93
13,F1Y,3.02
14,F1D,4.94
15,F1S,4.61
16,F1T,4.55
17,F1E,5.36
18,F1C,3.9
19,F1M,3.98
20,F1W,2.93
21,F1I,3.88
22,F1V,4.27
23,F1L,4.45
24,F1R,4.99
25,F1K,4.58
26,F1G,4.57

row,Variant,protein stability index
1,F1A,4.29
2,F1N,4.72
3,F1H,4.02
4,F1P,4.49
5,E3W,1.72
6,E3G,2.11
7,E3T,2.22
8,E3F,1.95
9,E3K,3.3
10,E3V,2.44
11,E3S,2.34
12,E3R,3.33
13,E3N,3.09
14,E3H,3.36
15,E3Y,2.69
16,E3L,2.22
17,E3M,1.79
18,E3Q,3.45
19,E3A,3.06
20,E3I,2.55
21,E3C,2.48
22,E3D,2.1
23,E3P,2.64
24,A5S,2.24
25,A5N,2.82
26,A5W,1.9

row,Variant,protein stability index
1,A5T,2.46
2,A5I,2.47
3,A5P,3.58
4,A5H,2.73
5,A5Y,2.6
6,A5C,2.69
7,A5V,3.44
8,A5R,2.17
9,A5M,2.58
10,A5Q,3.32
11,A5F,2.5
12,A5E,3.83
13,A5D,3.71
14,A5L,1.82
15,A5K,3.27
16,A5G,2.88
17,Q2E,4.17
18,Q2S,2.55
19,Q2C,2.36
20,Q2A,2.07
21,Q2W,2.14
22,Q2L,2.12
23,Q2F,3.35
24,Q2K,3.61
25,Q2Y,2.96
26,Q2H,2.57

row,Variant,protein stability index
1,Q2G,2.44
2,Q2N,4.11
3,Q2M,2.65
4,Q2I,2.17
5,Q2P,2.86
6,Q2V,2.73
7,Q2R,3.32
8,Q2T,1.94
9,Q2D,4.74
10,K7C,1.99
11,K7Y,1.58
12,K7N,2.84
13,K7M,2.97
14,K7D,4.25
15,K7F,2.18
16,K7V,2.61
17,K7H,2.86
18,K7I,1.81
19,K7A,2.58
20,K7Q,4
21,K7L,2.3
22,K7P,3.35
23,K7E,3.66
24,K7R,2.3
25,K7G,3
26,K7T,3.38

row,Variant,protein stability index
1,K7S,2.94
2,K7W,1.73
3,G6I,2.69
4,G6L,2.44
5,G6C,2.28
6,G6W,2.65
7,G6H,2.73
8,G6Y,1.9
9,G6Q,2.68
10,G6T,3.32
11,G6A,2.4
12,G6P,3.7
13,G6V,1.68
14,G6N,3.4
15,G6E,4.18
16,G6F,1.84
17,G6M,2.46
18,G6R,2.58
19,G6S,2.53
20,G6K,3.03
21,G6D,3.62
22,L9C,2.63
23,L9A,3.41

# Variants of: B2
# Experiment: as above
# Settings: c terminus: a fixed tail appended
row,Variant,protein stability index
1,L16P,4.08
2,L16I,2.85
3,L16S,4.52
4,L16E,4.28
5,L16H,3.38
6,L16N,3.65
7,L16V,2.94
8,L16K,3.67
9,L16G,2.99
10,L16A,3.43
11,L16Y,3.66
12,L16Q,3.53
13,L20K,3.25
14,L20G,4.01
15,L20E,4.09
16,L20W,2.32
17,L20H,2.55
18,L20T,3.12
19,L20F,2.63
20,L20S,3.69
21,L20Q,2.58
22,L20Y,2.9
23,L20M,2.87

row,Variant,protein stability index
1,L20A,3.3
2,L20P,4.68
3,L20R,3.03
4,L20D,4.05
5,L20N,3.45
6,L20I,3.55
7,E24H,2.04
8,E24F,1.55
9,E24T,2.33
10,E24I,3
11,E24V,1.23
12,E24L,1.8
13,E24Y,1.35
14,E24D,2.67
15,E24A,3.57
16,E24N,2.7
17,E24R,2.02
18,E24M,1.87
19,E24C,2.08
20,E24S,3.28
21,E24P,2.39
22,E24K,2.05
23,E24W,1.52

row,Variant,protein stability index
1,R14F,2.56
2,R14L,1.99
3,R14D,1.56
4,R14H,1.74
5,R14Q,2.29
6,R14C,2.41
7,R14T,3.07
8,R14G,1.96
9,R14K,1.83
10,R14A,2.3
11,R14I,1.03
12,R14Y,1.84
13,R14M,2.81
14,R14E,2.84
15,E23T,2.61
16,E23W,1.84
17,E23M,2.3
18,E23S,2.3
19,E23V,1.8
20,E23Y,2.45
21,E23H,1.62
22,E23A,1.87
23,E23Q,3.18

row,Variant,protein stability index
1,E23L,3.39
2,E23R,2.37
3,E23N,2.18
4,E23K,2.75
5,E23D,2.42
6,E23C,1.92
7,E23F,1.62
8,E23I,1.21
9,A22W,2.74
10,A22S,2.37
11,A22V,2.21
12,A22P,3.69
13,A22T,2.8
14,A22L,1.78
15,A22M,2.41
16,A22I,2.1
17,A22D,2.73
18,A22E,3.08
19,A22H,2.8
20,A22Y,2.43
21,A22Q,2.64
22,A22R,2.3
23,A22N,2.86

row,Variant,protein stability index
1,A22K,3.27
2,A22F,1.92
3,V15C,2.61
4,V15E,3.12
5,V15N,3.25
6,V15I,1.99
7,V15W,3.47
8,V15H,4.36
9,V15S,3.27
10,V15F,2.41
11,V15D,3.5
12,V15L,1.9
13,V15R,3.57
14,V15T,3.33
15,V15M,1.9
16,V15A,3.31
17,V15Q,4.11
18,V15P,3.51
19,V15G,3.37
20,K21L,3.01
21,K21G,2.52
22,K21Q,1.89
23,K21N,3.04

row,Variant,protein stability index
1,K21I,2.38
2,K21P,3.85
3,K21T,3.33
4,K21V,2.93
5,K21H,2.56
6,K21C,3.33
7,K21E,2.73
8,K21M,1.76
9,K21S,2.72
10,K21F,1.47
11,K21R,2.79
12,K21W,1.83
13,K21A,2.35
14,A18I,2.36
15,A18P,2.29
16,A18L,1.31
17,A18H,3.17
18,A18C,2.33
19,A18Q,3.94
20,A18R,3.23
21,A18K,3.02
22,A18N,3.06
23,A18G,3.77

row,Variant,protein stability index
1,A18W,2.3
2,A18S,3.66
3,A18M,1.8
4,A18T,3.58
5,M19P,3.79
6,M19E,3
7,M19F,3.26
8,M19A,3
9,M19V,3.61
10,M19Q,3.52
11,M19C,3.48
12,M19W,3.96
13,M19H,3.54
14,M19T,3.38
15,M19R,3.15
16,M19D,4.26
17,M19K,3.92
18,M19N,4.92
19,D13Q,3.34
20,D13R,3.68
21,D13M,2.66
22,D13T,2.52
23,D13W,2.35

row,Variant,protein stability index
1,D13V,1.54
2,D13S,2.37
3,D13P,2.61
4,D13N,2.02
5,R17F,2.1
6,R17N,2.61
7,R17H,2.31
8,R17V,1.72
9,R17I,1.82
10,R17W,1.74
11,R17T,3.47
12,R17Y,3.4
13,R17D,2.12
14,R17S,2.72
15,R17L,3.01
16,R17E,2.22
17,R17Q,2.68
18,R17P,3.46
19,R17C,2.46
20,R17M,3.21
